Assays:
Experiment in all cases: MST
[1] = biological target: T2 gp006-6×His (phage T2)
[2] = biological target: T2 gp057-6×His (phage T2)
[3] = biological target: T2 gp006^I20A-6×His (phage T2)
[4] = biological target: T2 gp009-6×His (phage T2)

Substance: bNACHT11 (natural protein)
- Kd [1]: 80 nM
- Kd [2]: 149 nM
- Kd [3]: 351 nM
- Kd [4]: 269 nM

Reference: article PMC11702601
